Measured values from patent publication US7402417B2, “P450 oxygenases and methods of use” (Washington State University Research Foundation, priority 2003, dated 2008).

B1: taxoid 5α-hydroxylase (Taxus cuspidata) (protein)
chain: MDALYKSTVAKFNEVTQLDCSTESFSIALSAIAGILLLLLLFRSKRHSSLKLPPGKLGIPFIGESFIFLRALRSNSLEQFFDERVKKFGLVFKTSLIGHPTVVLCGPAGNRLILSNEEKLVQMSWPAQFMKLMGENSVATRRGEDHIVMRSALAGFFGPGALQSYIGKMNTEIQSHINEKWKGKDEVNVLPLVRELVFNISAILFFNIYDKQEQDRLHKLLETILVGSFALPIDLPGFGFHRALQGRAKLNKIMLSLIKKRKEDLQSGSATATQDLLSVLLTFRDDKGTPLTNDEILDNFSSLLHASYDTTTSPMALIFKLLSSNPECYQKVVQEQLEILSNKEEGEEITWKDLKAMKYTWQVAQETLRMFPPVFGTFRKAITDIQYDGYTIPKGWKLLWTTYSTHPKDLYFNEPEKFMPSRFDQEGKHVAPYTFLPFGGGQRSCVGWEFSKMEILLFVHHFVKTFSSYTPVDPDEKISGDPLPPLPSKGFSIKLFPRP
B2: recombinant taxoid 5α-hydroxylase (clone S1) (Taxus cuspidata) (protein)
chain: MDALYKSTVAKFNEVTQLDCSTESFSIALSAIAGILLLLLLFRSKRHSSLKLPPGKLGIPFIGESFIFLRALRSNSLEQFFDERVKKFGLVFKTSLIGHPTVVLCGPAGNRLILSNEEKLVQMSWPAQFMKLMGENSVATRRGEDHIVMRSALAGFFGPGALQSYIGKMNTEIQSHINEKWKGKDEVNVLPLVRELVFNISAILFFNIYDKQEQDRLHKLLETILVGSFALPIDLPGFGFHRALQGRAKLNKIMLSLIKKRKEDLQSGSATATQDLLSVLLTFRDDKGTPLTNDEILDNFSSLLHASYDTTTSPMALIFKLLSSNPECYQKVVQEQLEILSNKEEGEEITWKDLKAMKYTWQVAQETLRMFPPVFGTFRKAITDIQYDGYTIPKGWKLLWTTYSTHPKDLYFNEPEKFMPSRFDQEGKHVAPYTFLPFGGGQRSCVGWEFSKMEILLFVHHFVKTFSSYTPVDPDEKISGDPLPPLPSKGFSIKLFPETIVN
notes: the S1 ORF was amplified using Pfu DNA polymerase and gene-specific primers containing a BamHI site immediately upstream of the start codon; made in house; host or cells: Spodoptera frugiperda Sf9 cells (baculovirus, pFastBac1); microsomal membranes

Columns and labels:
[1] = substrate: C=C1CCC[C@@]2(C)CCC3=C(C)CC[C@@H](C[C@H]12)C3(C)C; assay: Kinetic evaluation of taxadiene isomers, average of recombinant and T. media microsomes (FIG. 4); type: biochemical, Taxus; conditions: other: average of recombinant (Sf9) and T. media microsomes; substrate 1 to 500 μM
Description: (§1) Taxa-4(20),11(12)-diene (◯) and taxa-4(5),11(12)-diene (●) were evaluated with microsomes from S. formgiperda cells enriched with 50 pmol recombinant taxoid 5α-hydroxylase (A), and with microsomes from T. media suspension cells containing about 50 pmol of total native cytochrome P450 (B). Substrate Concentration range was varied from 1 to 500 μM in all cases.

[2] = substrate: [H][C@]12CCC(C)=C(CC[C@]3(C)CCC=C(C)[C@@]3([H])C1)C2(C)C; assay: as above; type: biochemical, Taxus; conditions: other: average of recombinant (Sf9) and T. media microsomes; substrate 1 to 500 μM
Description: as §1

[3] = substrate: C=C1CCC[C@@]2(C)CCC3=C(C)CC[C@@H](C[C@H]12)C3(C)C; assay: Kinetic evaluation with Sf9 microsomes enriched in recombinant 5α-hydroxylase (radio-HPLC, Michaelis-Menten); type: biochemical, Taxus cuspidata; conditions: other: Sf9 microsomes, recombinant enzyme, 200 μM NADPH plus regenerating system; pH 7.5
Description: (§2) Kinetic constants for both isomers were next evaluated (at a saturating 200 μM concentration of NADPH plus regenerating system; Shimada and Yamazai, Meth. Mol. Biol., 107:85-93, 1998). The isolated microsomes were resuspended in 50 mM Hepes, pH 7.5, containing 1 mM DTT and 5% (v/v) glycerol, and the 1 ml reactions (˜600 μg protein, 50 μM substrate dissolved in DMSO, and the requisite cofactors (e.g., NADPH plus regenerating system) were run as described previously, with the identical protocols for product analysis (Jennewein et al., Proc. Natl. Acad. Sci. USA, 98:13595-13600, 2001). DMSO was without influence on the reaction. For kinetic evaluation, following the establishment of linear reaction conditions in protein concentration and time, the response to substrate concentration was plotted by the Michaelis-Menten method (Sigmaplot 7.0) using the calibrated radio-HPLC protocol for product determination Data from three independent experiments were pooled and the line of best fit taken (R^2>0.99).

[4] = substrate: [H][C@]12CCC(C)=C(CC[C@]3(C)CCC=C(C)[C@@]3([H])C1)C2(C)C; assay: as above; type: biochemical, Taxus cuspidata; conditions: other: Sf9 microsomes, recombinant enzyme, 200 μM NADPH plus regenerating system; pH 7.5
Description: as §2

Protein | Km [1] | Km [2] | Km [3] | Km [4]
B1 | 21.5 µM | 36 µM | – | –
B2 | – | – | 16 ± 3.2 µM | 24 ± 2.5 µM
